Laboratory results taken from paper PMC10145227.

Experiments:
[1] = fibrin plate lysis area, t-PA standard; conditions: control: rDSPAα1
[2] = nanoDSF, F350/F330 ratio and scattering; conditions: control: rDSPAα1
[3] = S-2765 activity after 1 h at 30-90 °C or pH 3-12; conditions: control: rDSPAα1
[4] = purified protein yield from P. pastoris; conditions: control: rDSPAα1
[5] = S-2765 hydrolysis kinetics, fibrin cofactor; conditions: control: rDSPAα1
[6] = S-2765 hydrolysis kinetics, fibrinogen cofactor; conditions: control: rDSPAα1
[7] = S-2765 hydrolysis kinetics, no cofactor; conditions: glycan lost; control: rDSPAα1
[8] = ratio of S-2765 Kcat/Km, fibrin/fibrinogen; conditions: control: rDSPAα1
[9] = plasma plasminogen ELISA, slope versus time; conditions: control: rDSPAα1
[10] = H&E thrombus section score (higher is worse); conditions: control: rDSPAα1
[11] = ELISA time course after dosing; conditions: control: rDSPAα1
[12] = blood routine examination, 1 h after dosing; conditions: glycan gained; control: rDSPAα1
[13] = recanalization rate, FeCl3 carotid thrombosis; conditions: control: rDSPAα1
[14] = ELISA, slope of concentration versus time; conditions: control: rDSPAα1
[15] = thrombus length, dry and wet weight; conditions: control: rDSPAα1
[16] = hindlimb vein bleeding time after dosing; conditions: control: rDSPAα1

B1: DSPAα1: ANGlyα1 + U (protein)
parent chain: MVNTMKTKLLCVLLLCGAVFSLPRQETYRQLARGSRAYGVACKDEITQMTYRRQESWLRPEVRSKRVEHCQCDRGQARCHTVPVNSCSEPRCFNGGTCWQAVYFSDFVCQCPAGYTGKRCEVDTRATCYEGQGVTYRGTWSTAESRVECINWNSSLLTRRTYNGRMPDAFNLGLGNHNYCRNPNGAPKPWCYVIKAGKFTSESCSVPVCSKATCGLRKYKEPQLHSTGGLFTDITSHPWQAAIFAQNRRSSGERFLCGGILISSCWVLTAAHCFQESYLPDQLKVVLGRTYRVKPGEEEQTFKVKKYIVHKEFDDDTYNNDIALLQLKSDSPQCAQESDSVRAICLPEANLQLPDWTECELSGYGKHKSSSPFYSEQLKEGHVRLYPSSRCAPKFLFNKTVTNNMLCAGDTRSGEIYPNVHDACQGDSGGPLVCMNDNHMTLLGIISWGVGCGEKDVPGVYTKVTNYLGWIRDNMHL
- enzymatic_activity, percent_of_wt ([1]; glycan gained): decreases
- stability_or_folding ([2]; glycan gained): no change
- stability_or_folding ([3]; glycan gained): no change
- expression_or_secretion, percent_of_wt ([4]; glycan gained): no change

B2: DSPAα1: QNGlyα1-1 (protein)
parent chain: B1 parent chain
- enzymatic_activity, percent_of_wt ([1]; glycan lost): decreases
- enzymatic_activity, kcat_Km ([5]; glycan lost): decreases, 333.760 ± 20.680 vs 5883.440 ± 983.570
- stability_or_folding ([2]; glycan lost): no change
- stability_or_folding ([3]; glycan lost): no change
- enzymatic_activity, kcat_Km ([6]; glycan lost): no change, 292.580 ± 1.780 vs 282.240 ± 13.070
- enzymatic_activity, kcat_Km [7]: no change, 38.800 ± 0.780 vs 34.830 ± 2.350
- expression_or_secretion, percent_of_wt ([4]; glycan lost): decreases
- other: fibrin selectivity, other: ratio Fbn/Fbg ([8]; glycan lost): decreases, 1.100 vs 20.800

B3: DSPAα1: ANGlyα1 + 2 (protein)
parent chain: B1 parent chain
- enzymatic_activity, percent_of_wt ([1]; glycan gained): decreases
- enzymatic_activity, kcat_Km ([5]; glycan gained): decreases, 3257.040 ± 561.250 vs 5883.440 ± 983.570, The Kcat/Km of ANGlyα1 + 2 was 79% of rDSPAα1 when fibrin was used as a cofactor
- stability_or_folding ([2]; glycan gained): no change
- stability_or_folding ([3]; glycan gained): no change
- other: plasminogen activation in rats ([9]; glycan gained): decreases
- enzymatic_activity, kcat_Km ([6]; glycan gained): decreases, 248.960 ± 6.330 vs 282.240 ± 13.070
- expression_or_secretion, percent_of_wt ([4]; glycan gained): no change
- other: fibrin selectivity, other: ratio Fbn/Fbg ([8]; glycan gained): decreases, 13.100 vs 20.800
- other: thrombolytic efficacy in rats, other: total score ([10]; glycan gained): decreases, 92.500 ± 1.049 vs 61.667 ± 1.966
- other: plasma D-dimer course in rats ([11]; glycan gained): changes
- other: plasma PAI concentration in rats ([11]; glycan gained): no change
- other: plasma α2-AP concentration in rats ([11]; glycan gained): decreases
- other: platelet count in rats, other: PLT [12]: no change, 712.667 ± 16.010 vs 724.333 ± 50.817
- other: thrombolytic efficacy in rats, other: recanalized rats ([13]; glycan gained): decreases, 3/8 vs 4/8
- other: plasma FDP rise in rats ([14]; glycan gained): increases
- other: thrombolytic efficacy in rats ([15]; glycan gained): decreases
- other: bleeding time in rats ([16]; glycan gained): no change

B4: DSPAα1: QNGlyα1 (protein)
parent chain: B1 parent chain
- enzymatic_activity, percent_of_wt ([1]; glycan lost): abolishes
- stability_or_folding ([2]; glycan lost): no change
- stability_or_folding ([3]; glycan lost): no change
- other: plasminogen activation in rats ([9]; glycan lost): abolishes
- expression_or_secretion, percent_of_wt ([4]; glycan lost): decreases
- other: fibrin selectivity, other: ratio Fbn/Fbg ([8]; glycan lost): decreases, 0.700 vs 20.800
- other: thrombolytic efficacy in rats, other: total score ([10]; glycan lost): decreases, 103.333 ± 0.816 vs 61.667 ± 1.966
- other: plasma D-dimer course in rats ([11]; glycan lost): increases
- other: plasma α2-AP concentration in rats ([11]; glycan lost): no change
- other: thrombolytic efficacy in rats, other: recanalized rats ([13]; glycan lost): abolishes, 0/8 vs 4/8
- other: plasma FDP rise in rats ([14]; glycan lost): decreases
- other: thrombolytic efficacy in rats ([15]; glycan lost): abolishes
- other: bleeding time in rats ([16]; glycan lost): increases

B5: DSPAα1: QNGlyα1-2 (protein)
parent chain: B1 parent chain
- enzymatic_activity, percent_of_wt ([1]; glycan lost): decreases
- stability_or_folding ([2]; glycan lost): no change
- stability_or_folding ([3]; glycan lost): no change
- expression_or_secretion, percent_of_wt ([4]; glycan lost): decreases
- other: fibrin selectivity, other: ratio Fbn/Fbg ([8]; glycan lost): decreases, 8.500 vs 20.800
